Earlier results in patent US12258594B2, “Cas proteins with reduced immunogenicity and methods of screening thereof” (THE BROAD INSTITUTE, INC., priority 2018, dated 2025).

B1: Lys558: LbuCas13a with alanine substituted for Lys558 (protein, UniProt C7NBY4 1-1159, looked up, variant K558A)
CRISPR-associated …: MKVTKVGGISHKKYTSEGRLVKSESEENRTDERLSALLNMRLDMYIKNPSSTETKENQKRIGKLKKFFSNKMVYLKDNTLSLKNGKKENIDREYSETDILESDVRDKKNFAVLKKIYLNENVNSEELEVFRNDIKKKLNKINSLKYSFEKNKANYQKINENNIEKVEGKSKRNIIYDYYRESAKRDAYVSNVKEAFDKLYKEEDIAKLVLEIENLTKLEKYKIREFYHEIIGRKNDKENFAKIIYEEIQNVNNMKELIEKVPDMSELKKSQVFYKYYLDKEELNDKNIKYAFCHFVEIEMSQLLKNYVYKRLSNISNDKIKRIFEYQNLKKLIENKLLNKLDTYVRNCGKYNYYLQDGEIATSDFIARNRQNEAFLRNIIGVSSVAYFSLRNILETENENDITGRMRGKTVKNNKGEEKYVSGEVDKIYNENKKNEVKENLKMFYSYDFNMDNKNEIEDFFANIDEAISSIRHGIVHFNLELEGKDIFAFKNIAPSEISKKMFQNEINEKKLKLKIFRQLNSANVFRYLEKYKILNYLKRTRFEFVNKNIPFVPSFTALYSRIDDLKNSLGIYWKTPKTNDDNKTKEIIDAQIYLLKNIYYGEFLNYFMSNNGNFFEISKEIIELNKNDKRNLKTGFYKLQKFEDIQEKIPKEYLANIQSLYMINAGNQDEEEKDTYIDFIQKIFLKGFMTYLANNGRLSLIYIGSDEETNTSLAEKKQEFDKFLKKYEQNNNIKIPYEINEFLREIKLGNILKYTERLNMFYLILKLLNHKELTNLKGSLEKYQSANKEEAFSDQLELINLLNLDNNRVTEDFELEADEIGKFLDFNGNKVKDNKELKKFDTNKIYFDGENIIKHRAFYNIKKYGMLNLLEKIADKAGYKISIEELKKYSNKKNEIEKNHKMQENLHRKYARPRKDEKFTDEDYESYKQAIENIEEYTHLKNKVEFNELNLLQGLLLRILHRLVGYTSIWERDLRFRLKGEFPENQYIEEIFNFENKKNVKYKGGQIVEKYIKFYKELHQNDEVKINKYSSANIKVLKQEKKDLYIRNYIAHFNYIPHAEISLLEVLENLRKLLSYDRKLKNAVMKSVVDILKEYGFVATFKIGADKKIGIQTLESEKIVHLKNLKKKKLMTDRNSEELCKLVKIMFEYKMEEKKSEN
B2: Arg809Ala: Arg809Ala mutant of LbuCas13a (protein, UniProt C7NBY4 1-1159, looked up, variant R809A)
CRISPR-associated …: MKVTKVGGISHKKYTSEGRLVKSESEENRTDERLSALLNMRLDMYIKNPSSTETKENQKRIGKLKKFFSNKMVYLKDNTLSLKNGKKENIDREYSETDILESDVRDKKNFAVLKKIYLNENVNSEELEVFRNDIKKKLNKINSLKYSFEKNKANYQKINENNIEKVEGKSKRNIIYDYYRESAKRDAYVSNVKEAFDKLYKEEDIAKLVLEIENLTKLEKYKIREFYHEIIGRKNDKENFAKIIYEEIQNVNNMKELIEKVPDMSELKKSQVFYKYYLDKEELNDKNIKYAFCHFVEIEMSQLLKNYVYKRLSNISNDKIKRIFEYQNLKKLIENKLLNKLDTYVRNCGKYNYYLQDGEIATSDFIARNRQNEAFLRNIIGVSSVAYFSLRNILETENENDITGRMRGKTVKNNKGEEKYVSGEVDKIYNENKKNEVKENLKMFYSYDFNMDNKNEIEDFFANIDEAISSIRHGIVHFNLELEGKDIFAFKNIAPSEISKKMFQNEINEKKLKLKIFRQLNSANVFRYLEKYKILNYLKRTRFEFVNKNIPFVPSFTKLYSRIDDLKNSLGIYWKTPKTNDDNKTKEIIDAQIYLLKNIYYGEFLNYFMSNNGNFFEISKEIIELNKNDKRNLKTGFYKLQKFEDIQEKIPKEYLANIQSLYMINAGNQDEEEKDTYIDFIQKIFLKGFMTYLANNGRLSLIYIGSDEETNTSLAEKKQEFDKFLKKYEQNNNIKIPYEINEFLREIKLGNILKYTERLNMFYLILKLLNHKELTNLKGSLEKYQSANKEEAFSDQLELINLLNLDNNAVTEDFELEADEIGKFLDFNGNKVKDNKELKKFDTNKIYFDGENIIKHRAFYNIKKYGMLNLLEKIADKAGYKISIEELKKYSNKKNEIEKNHKMQENLHRKYARPRKDEKFTDEDYESYKQAIENIEEYTHLKNKVEFNELNLLQGLLLRILHRLVGYTSIWERDLRFRLKGEFPENQYIEEIFNFENKKNVKYKGGQIVEKYIKFYKELHQNDEVKINKYSSANIKVLKQEKKDLYIRNYIAHFNYIPHAEISLLEVLENLRKLLSYDRKLKNAVMKSVVDILKEYGFVATFKIGADKKIGIQTLESEKIVHLKNLKKKKLMTDRNSEELCKLVKIMFEYKMEEKKSEN
B3: Lys942Ala: Lys942Ala mutant of LbuCas13a (protein, UniProt C7NBY4 1-1159, looked up, variant K942A)
CRISPR-associated …: MKVTKVGGISHKKYTSEGRLVKSESEENRTDERLSALLNMRLDMYIKNPSSTETKENQKRIGKLKKFFSNKMVYLKDNTLSLKNGKKENIDREYSETDILESDVRDKKNFAVLKKIYLNENVNSEELEVFRNDIKKKLNKINSLKYSFEKNKANYQKINENNIEKVEGKSKRNIIYDYYRESAKRDAYVSNVKEAFDKLYKEEDIAKLVLEIENLTKLEKYKIREFYHEIIGRKNDKENFAKIIYEEIQNVNNMKELIEKVPDMSELKKSQVFYKYYLDKEELNDKNIKYAFCHFVEIEMSQLLKNYVYKRLSNISNDKIKRIFEYQNLKKLIENKLLNKLDTYVRNCGKYNYYLQDGEIATSDFIARNRQNEAFLRNIIGVSSVAYFSLRNILETENENDITGRMRGKTVKNNKGEEKYVSGEVDKIYNENKKNEVKENLKMFYSYDFNMDNKNEIEDFFANIDEAISSIRHGIVHFNLELEGKDIFAFKNIAPSEISKKMFQNEINEKKLKLKIFRQLNSANVFRYLEKYKILNYLKRTRFEFVNKNIPFVPSFTKLYSRIDDLKNSLGIYWKTPKTNDDNKTKEIIDAQIYLLKNIYYGEFLNYFMSNNGNFFEISKEIIELNKNDKRNLKTGFYKLQKFEDIQEKIPKEYLANIQSLYMINAGNQDEEEKDTYIDFIQKIFLKGFMTYLANNGRLSLIYIGSDEETNTSLAEKKQEFDKFLKKYEQNNNIKIPYEINEFLREIKLGNILKYTERLNMFYLILKLLNHKELTNLKGSLEKYQSANKEEAFSDQLELINLLNLDNNRVTEDFELEADEIGKFLDFNGNKVKDNKELKKFDTNKIYFDGENIIKHRAFYNIKKYGMLNLLEKIADKAGYKISIEELKKYSNKKNEIEKNHKMQENLHRKYARPRKDEKFTDEDYESYKQAIENIEEYTHLANKVEFNELNLLQGLLLRILHRLVGYTSIWERDLRFRLKGEFPENQYIEEIFNFENKKNVKYKGGQIVEKYIKFYKELHQNDEVKINKYSSANIKVLKQEKKDLYIRNYIAHFNYIPHAEISLLEVLENLRKLLSYDRKLKNAVMKSVVDILKEYGFVATFKIGADKKIGIQTLESEKIVHLKNLKKKKLMTDRNSEELCKLVKIMFEYKMEEKKSEN
B4: Tyr938Ala: Tyr938Ala mutant of LbuCas13a (protein, UniProt C7NBY4 1-1159, looked up, variant Y938A)
CRISPR-associated …: MKVTKVGGISHKKYTSEGRLVKSESEENRTDERLSALLNMRLDMYIKNPSSTETKENQKRIGKLKKFFSNKMVYLKDNTLSLKNGKKENIDREYSETDILESDVRDKKNFAVLKKIYLNENVNSEELEVFRNDIKKKLNKINSLKYSFEKNKANYQKINENNIEKVEGKSKRNIIYDYYRESAKRDAYVSNVKEAFDKLYKEEDIAKLVLEIENLTKLEKYKIREFYHEIIGRKNDKENFAKIIYEEIQNVNNMKELIEKVPDMSELKKSQVFYKYYLDKEELNDKNIKYAFCHFVEIEMSQLLKNYVYKRLSNISNDKIKRIFEYQNLKKLIENKLLNKLDTYVRNCGKYNYYLQDGEIATSDFIARNRQNEAFLRNIIGVSSVAYFSLRNILETENENDITGRMRGKTVKNNKGEEKYVSGEVDKIYNENKKNEVKENLKMFYSYDFNMDNKNEIEDFFANIDEAISSIRHGIVHFNLELEGKDIFAFKNIAPSEISKKMFQNEINEKKLKLKIFRQLNSANVFRYLEKYKILNYLKRTRFEFVNKNIPFVPSFTKLYSRIDDLKNSLGIYWKTPKTNDDNKTKEIIDAQIYLLKNIYYGEFLNYFMSNNGNFFEISKEIIELNKNDKRNLKTGFYKLQKFEDIQEKIPKEYLANIQSLYMINAGNQDEEEKDTYIDFIQKIFLKGFMTYLANNGRLSLIYIGSDEETNTSLAEKKQEFDKFLKKYEQNNNIKIPYEINEFLREIKLGNILKYTERLNMFYLILKLLNHKELTNLKGSLEKYQSANKEEAFSDQLELINLLNLDNNRVTEDFELEADEIGKFLDFNGNKVKDNKELKKFDTNKIYFDGENIIKHRAFYNIKKYGMLNLLEKIADKAGYKISIEELKKYSNKKNEIEKNHKMQENLHRKYARPRKDEKFTDEDYESYKQAIENIEEATHLKNKVEFNELNLLQGLLLRILHRLVGYTSIWERDLRFRLKGEFPENQYIEEIFNFENKKNVKYKGGQIVEKYIKFYKELHQNDEVKINKYSSANIKVLKQEKKDLYIRNYIAHFNYIPHAEISLLEVLENLRKLLSYDRKLKNAVMKSVVDILKEYGFVATFKIGADKKIGIQTLESEKIVHLKNLKKKKLMTDRNSEELCKLVKIMFEYKMEEKKSEN
B5: Tyr601Ala: Tyr601Ala mutant of LbuCas13a (protein, UniProt C7NBY4 1-1159, looked up, variant Y601A)
CRISPR-associated …: MKVTKVGGISHKKYTSEGRLVKSESEENRTDERLSALLNMRLDMYIKNPSSTETKENQKRIGKLKKFFSNKMVYLKDNTLSLKNGKKENIDREYSETDILESDVRDKKNFAVLKKIYLNENVNSEELEVFRNDIKKKLNKINSLKYSFEKNKANYQKINENNIEKVEGKSKRNIIYDYYRESAKRDAYVSNVKEAFDKLYKEEDIAKLVLEIENLTKLEKYKIREFYHEIIGRKNDKENFAKIIYEEIQNVNNMKELIEKVPDMSELKKSQVFYKYYLDKEELNDKNIKYAFCHFVEIEMSQLLKNYVYKRLSNISNDKIKRIFEYQNLKKLIENKLLNKLDTYVRNCGKYNYYLQDGEIATSDFIARNRQNEAFLRNIIGVSSVAYFSLRNILETENENDITGRMRGKTVKNNKGEEKYVSGEVDKIYNENKKNEVKENLKMFYSYDFNMDNKNEIEDFFANIDEAISSIRHGIVHFNLELEGKDIFAFKNIAPSEISKKMFQNEINEKKLKLKIFRQLNSANVFRYLEKYKILNYLKRTRFEFVNKNIPFVPSFTKLYSRIDDLKNSLGIYWKTPKTNDDNKTKEIIDAQIYLLKNIYAGEFLNYFMSNNGNFFEISKEIIELNKNDKRNLKTGFYKLQKFEDIQEKIPKEYLANIQSLYMINAGNQDEEEKDTYIDFIQKIFLKGFMTYLANNGRLSLIYIGSDEETNTSLAEKKQEFDKFLKKYEQNNNIKIPYEINEFLREIKLGNILKYTERLNMFYLILKLLNHKELTNLKGSLEKYQSANKEEAFSDQLELINLLNLDNNRVTEDFELEADEIGKFLDFNGNKVKDNKELKKFDTNKIYFDGENIIKHRAFYNIKKYGMLNLLEKIADKAGYKISIEELKKYSNKKNEIEKNHKMQENLHRKYARPRKDEKFTDEDYESYKQAIENIEEYTHLKNKVEFNELNLLQGLLLRILHRLVGYTSIWERDLRFRLKGEFPENQYIEEIFNFENKKNVKYKGGQIVEKYIKFYKELHQNDEVKINKYSSANIKVLKQEKKDLYIRNYIAHFNYIPHAEISLLEVLENLRKLLSYDRKLKNAVMKSVVDILKEYGFVATFKIGADKKIGIQTLESEKIVHLKNLKKKKLMTDRNSEELCKLVKIMFEYKMEEKKSEN

Tested on: target RNA
Conditions: LbuCas13a alanine mutants

With B1 as the molecule, how does the “crRNA-guided target RNA cleavage activity” value read?
Its value is “dramatically reduced crRNA-guided RNA cleavage”.

For B2, which “crRNA-guided target RNA cleavage activity” value is on record?
Its value is “reduced target RNA cleavage activity”.

Which “crRNA-guided target RNA cleavage activity” value does the source give for B3 here?
The value was “reduced target RNA cleavage activity”.

Which “crRNA-guided target RNA cleavage activity” value does the source give for B4 here?
The value was “reduced target RNA cleavage activity”.

Which “crRNA-guided target RNA cleavage activity” value does the source give for B5 here?
Its value is “reduced target RNA cleavage activity”.
